From patent US20260070983A1

How the values were obtained:
human PD-1 ECD (human) = test: SPR, 37 °C
human PD-1 (human) = human PD-1 (human) (UniProt Q15116); test: cell-based or functional assay
Sequence of human PD-1 (human) (Q15116 25-288): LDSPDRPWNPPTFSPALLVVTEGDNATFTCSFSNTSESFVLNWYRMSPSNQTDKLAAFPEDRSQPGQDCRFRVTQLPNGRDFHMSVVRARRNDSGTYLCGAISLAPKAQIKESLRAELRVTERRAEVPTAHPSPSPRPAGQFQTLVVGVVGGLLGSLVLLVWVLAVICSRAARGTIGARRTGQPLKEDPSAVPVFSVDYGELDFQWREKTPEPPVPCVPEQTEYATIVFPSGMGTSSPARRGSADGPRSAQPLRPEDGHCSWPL

Sequence of human PD-1 ECD (human) (Q15116 25-170): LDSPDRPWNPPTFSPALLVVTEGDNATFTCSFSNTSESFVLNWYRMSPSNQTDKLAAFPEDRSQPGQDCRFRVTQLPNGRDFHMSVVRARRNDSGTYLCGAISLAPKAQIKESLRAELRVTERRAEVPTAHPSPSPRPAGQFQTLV

Kd (human PD-1 ECD (human)): 2.3 nM
% ADCC Activated T cells, mean (human PD-1 (human)): 3.3%
% ADCC PBMC, mean (human PD-1 (human)): 0.2%
% Inhibition Proliferation, mean (SEB assay) (human PD-1 (human)): 36.9%
% PD-1 Expression Inhibition, mean (SEB assay) (human PD-1 (human)): 50.8%
% T cell Proliferation Inhibition, mean (SEB assay) (human PD-1 (human)): 56.5%
B1: G2 IgG1 mAb (antibody, INN chains, looked up, V domains shown)
VH: QVQLVQSGAEVKKPGASVKVSCKVSGYSLSKYDMSWVRQAPGKGLEWMGIIYTSGYTDYAQKFQGRVTMTEDTSTDTAYMELSSLRSEDTAVYYCATGNPYYTNGFNSWGQGTLVTVSS
VL: DIQMTQSPSSLSASVGDRVTITCQASQSPNNLLAWYQQKPGKAPKLLIYGASDLPSGVPSRFSGSGSGTDFTLTISSLQPEDFATYYCQNNYYVGPVSYAFGGGTKVEIK
modifications: IgG1
